The data set is described as follows: soluble on expression in E. coli; label from the status in PepcDB or PDB records.
As to “MGSDKIHHHHHHVKSELIWSKALETSRKAIDCAAVIPLETYKYKSIKKCFDFELRFLKRTFPKNLIDYGPKANPFIPWDRRLEVQAVNDNYTIILNKYPVQLGHLLLISNYWKPQNSWLSIDDFEAIAKVDNDTTGLWFFNSSKDAGASQPHRHFQLLRRDKYENICPRYEWFCSLLNNSEGFNSDIKQCISIKPRKSKLDIDAHDLFNSYKSMIIEMDLGNINNDDKPLKPYNLLITEKWISLIVRSKDRAHGFGINALGFAGYFLGTRRSDIDMLIKFGPESILKDVI”, the “soluble on expression in E. coli” value is recorded as “not soluble”.

“MPKKTFENLEDSHGKDVNIPVELPKRKREVTPENLPSTSSTAPTQKRKSLGYSGRTEEPKNIHKTFISPFSTSVSPSKQGLRRRKKALPAIEPPVSVEEASPLRFVNIDVFSRRMASESSDHDAMIAKLLSRKFSIPMEGYMLSGRSLGLGGNRRKCALFDPYHEGALILYAPEHLSEHAQLKEDKDRKVHVVADPVVGKILRPHQRDGVKFMWDCVTGINIPEFHGCIMADEMGLGKTLQCISLLWTLLRQSPDACPTVSKSIIVCPSSLVKNWDKEIKKWLGTRLNAMPVDSGKREQIIACLNSFMADSKMRCAIPVLIISYETFRLYANILHSGDVGIVICDEGHRLKNSENLTYQALSGLKCARRVLISGTPIQNDLLEYFSLVNFVNPGLLGTASEFRKKFENAILKGRDADASSEDQKKGEEKTKEMISLVEKCIIRRTSALLTKYLPVKYEHIICCKNSTLQETLYNKLIECEKQNRIVEKDKGATASALSFITHLKKLCNHPYLVYDEFQKPDNRFRNKCLSIFPESFNPKSFDPSFSGKMKVLDYILAVTRKTTDDKFVLVSNYTQTIDQFMELCKLRGYDFVRLDGSMSIKQRSKIVDTFNDPASTIFCFLLSSKAGGCGLNLIGANRLVMFDPDWNPANDDQAMARVWRDGQKKMCFIYRLLATGSIEEKMFQRQTHKKALSSCVVDAGEDVARHFSSEQLRELFKLESTVASDTHEKLKCKRCIQGVESVDPPTNADCASDLSNWFHSQKSARKVADNVLRAVFECGSISFVFHQKSHNVEVKKVQEKVEEVDEDYVPSEAEENDD”: the “soluble on expression in E. coli” value was “soluble”.

As for “NEAPIDMHGGKSAKIERQSVENSAQKENSKSAILERLKRLREYSKDHLKAFQRLQVQDFDGRIKPLDTISIEYIHKILKKDDFQGLNAMQVLLGIMFFPNDWRSIKMIYTSTKALRKLIGTPLDESRIAFRDAFDSRGYKLKNLVEEVNQKSPNARNELDKDVLKVDERINLVYTLFSAQFLRIFPSDKTTAWLSPIEAISSPNKEISSVATEFLKNIFSGFDDALKTNQWDKVEKTLKDLSIYQKEHAKNLYLSSSKVDSEIFLNHTNFFNRLT”, the “soluble on expression in E. coli” value is “not soluble”.

For the sequence “MSLTQTPNTGSPHRVVIVGGGAGGLELAAKLGRAHGRERVTLVDSRPFHIWKPSLHEAAAGTLDIHQEGLSYLMLANMCNFTFAQGELQGIERERRQIQVGPVADPSGQQVLPPRELSYDTLVLAMGSTSNFFNTPGAAEHAVTLDTTENAEQFRLTMLKAMVQVDLRKVHDPSARLDLVIVGGGATGVELAVELIEASHVVSAYGLPNFRADRDLVITLVEGAPRILSALPEKISRAAHARLTELGVRVETDCRVAEVGADHVVTADGRRFEATMCLWAAGIEGPPLFRQLGLPLNRLGQLEVNERLESPDPHILALGDCCAAPWKDGRTVPARAQAAHQQADYLARKLTARLRNAAEPTEAYAYHDHGSLVSLGQGSGVGSLMGKLAGRGLFVSGTLARLMYMSLHLMHHRAVLGISRTATLALARLLMRRTRPRVKLHEGHHHHHH”, the “soluble on expression in E. coli” value is reported as “soluble”.

For “SLFITDKRVKESATALNPSMFQGLYLQDQMLKDPTYLPIYGSSELSRLDEFHPSNYFQVNNEGFTPYLVGKGGSQSLIHSLNFAAHMDQLKGKKIVFIVSPQWFIKRGSDEQHFAPNYSALQGLDLAFNDQIDPEIKKKMMKRMLRFKAVQNDAILSELYKAMVNGQTWKVNALKPAAKVYYSMLEKKDLYYSTTESSGPKRYISQSVKDKSWSELNKLADQSGKRHSGSNDFHIDNPVYKKLKPKVPKLKGKNKGRSYAVSPEYGDFEMMLDILKDAGAEPMFVTIPVNGKWYDYTGFPKKGRTDYYKKVNKQIRAKGFQVADFSGHEYDPYFMKDTIHIGWKGWVYVDKAIDEFYKTGKVTSS”, the “soluble on expression in E. coli” value was “soluble”.

On to “MFDPPALKNSVISFLNKRRHSSGGYTLYEGLPDSKNTYYAIRSFEVLDHEPPRLEETLDWLEDVHRGGTFAAQGLFYRCSILRDYGRNFEIPEKFTEMLRTSYRKSSLEITFYMDSVLRMHGEYLDEIPEWVLSIQNEDGGFGAYGSDIINTRFALEILNGHGMKIPGDEVLQFTDSCFSDGAWNFTPISYPPYIETVHSGFRINEILRGKVSDVTRFIMKIRNPDGGFRRSVYMGISEPEYTYRAIYMLASIHGW”, for which the “soluble on expression in E. coli” value is recorded as “not soluble”.

With “MGSDKIHHHHHHMPPRASERSQLRGDENFVHAAHHELYNATQRRNLTKATTTIRTKRLNVTAEMPDWEAVREAGSGIKRDVGQRLDELLVQFEEAVTARGGHVHWARDAKEAGDIVTKLVEETGEKNVVKIKSMATMEIDLNNRLREAGISARETDLAELIVQLGKDKPSHILVPAIHRNRAEIRDIFIREMPNTDDSLSSEPAELAEASRSFLREQFMKAKVAISGANFGIAETGTVTIMESEGNGRMCLTLPETLISVMGIEKIIPTFQDLEVFLQLLPRSSTGERQAPYVSTWSGVTEGDGPKNFHIVLVDNGRTAVLSDEIGREALKCIRCSACLNVCPVYERAGGHAYGSTYPGPIGAILSPQMTGIKNKHDPNAYLPYASSLCGRCNEVCPVKIPFTDILLELRHKKIQTDAPKIEKAMMGAMQLAWGNSTMWNMITRMVFMGRIMGGSNGKITHLPSFLAGWTDVRDTAVPPKKSFRQWFETEEAQQLLADARRDGIHPNNPEVNQKKEN”, the “soluble on expression in E. coli” value was “not soluble”.

Regarding “HMVHITLDPDTANPWLILSEDRRQVRLGDTQQSIPGNEERFDSYPMVLGAQHFHSGKHYWEVDVTGKEAWDLGVCRDSVRRKGHFLLSSKSGFWTIWLWNKQKYEAGTYPQTPLHLQVPPCQVGIFLDYEAGMVSFYNITDHGSLIYSFSECAFTGPLRPFFSPGFNDGGKNTAPLTLCPL”, the “soluble on expression in E. coli” value is recorded as “soluble”.

As to “MSLKKFSCGFEVTKEVIGGKWKGLVLYFLMNGPKRTSELKRIIPNITQKMLIQTLRELEASGLVSRKMYNQVPPKVEYSSTELGESLKPILQELCQWGGYYAEQEYAEGEYEIVQPEQLSEGGSHHHHHH”, the “soluble on expression in E. coli” value is listed as “soluble”.

Consider “MTPPEERQMLRETVASLVAKHAGPAAVRAAMASDRGYDESLWRLLCEQVGAAALVIPEELGGAGGELADAAIVVQELGRALVPSPLLGTTLAELALLAAAKPDAQALTELAQGSAIGALVLDPDYVVNGDIADIVVAATSGQLTRWTRFSAQPVATMDPTRRLARLQSEETEPLCPDPGIADTAAILLAAEQIGAAERCLQLTVEYAKSRVQFGRPIGSFQALKHRMADLYVTIAAARAVVADACHAPTPTNAATARLAASEALSTAAAEGIQLHGGIAITWEHDMHLYFKRAHGSAQLLESPREVLRRLESEVWESP”, for which the “soluble on expression in E. coli” value is reported as “not soluble”.

Consider “ATYAAASSALVPRGSHMYAPKLQGPVAVYTWEGNQVNITCEVFAYPSATISWFRDGQLLPSSNYSNIKIYNTPSASYLEVTPDSENDFGNYNCTAVNRIGQESLEFILVQADTPSSPSIDQVEPYSSTAQVQFDEPEATGGVPILKYKAEWRAVGEEVWHSKWYDAKEASMEGIVTIVGLKPETTYAVRLAALNGKGLGEISAASEFKTQPVQGE”, for which the “soluble on expression in E. coli” value was “soluble”.

In the case of “MSTLIECGASPFIPGFALKDVRLENGLTVRVAIGGSGSPLVLLHGHPQNHTTWRKVAPTLAQNHTVILPDLRGYGDSDKPTSDPAHRTYSKRTMAQDIVMLMDALGFSRFAFVGHDRGGRVGHRLALDYPDRVTCCTFIDIAPTATMYALTDKSFATRYFWWFFLIQPFPLPETMIAHDPAFFLRKHISGQLKIEGATSQEAFNEYLRCYQNPEMIHAICEDYRAAATIDLDDDAADTSARIRCPLQLLWGGLGTVGQLYNVVGTWKEKALNVQGEALPCGHSPQEECPEYFIQKLQSFLHSVL”, the “soluble on expression in E. coli” value is “soluble”.

Take “MKHLEIELKTLLKKDEYNRLKDQFTGVTPVLQTNYYIDTPDFELREKKVAMRIRTFEDWAELTLKVPQSVGNMEYNQKLQLKDAENYLSKEELPQGLVLDELAKHGIQSKNWQVLGCLTTLRYEMKTAIGLMALDQSRYFDITDYELELEVENHEQGKQDFRQFLEKNQISYQKAPSKLVRFVKSMKNS”: the “soluble on expression in E. coli” value is on record as “not soluble”.
